Experimental data reported in US20240239877A1.

B1: CD4 A Adnectin (anti-CD4 Domain 2 Adnectin) (designed binder)
chain: GVSDVPRDLEVVAATPTSLLISWDAPAVTVHSYHIQYWPLGSYQRYQVFSVPGSKSTATISGLKPGVEYQIRVYAETGGADSDQSFGWIQIGYRTP
B2: CD4 B Adnectin (anti-CD4 Domain 4 Adnectin) (designed binder)
chain: MASTSGSASYLIPSDLEVVAATPTSLSIYWYPVASTIINFRITYVETGGNSPVQEFTVPGSKSTATISGLKPGVDYTITVYAVHYEQKYSEYWIGHPISINYRTEGSGSHHHHHH

Molecular target: 123 different clinical envelope proteins
Test: cell-based or functional assay

Binder | Geometric mean EC50 (nM), cell-cell fusion assay [nM] | Geometric mean EC50 (µg/mL), cell-cell fusion assay [µg/mL] | Median EC50 (nM), cell-cell fusion assay [nM]
B1 | 5.5 | 0.006 | 5.3
B2 | 163 | 1.8 | 1300
